Experimental data taken from patent publication US20140072650A1, “GELATIN EXTRACT MADE FROM SKATE RAY SKIN AND ANTIHYPERTENSIVE COMPOSITION HAVING PEPTIDE ISOLATED FROM EXTRACT AS ACTIVE INGREDIENT” (PUKYONG NATIONAL UNIVERSITY INDUSTRY-UNIVERSITY CO, priority 2012, published 2014).

Target: angiotensin converting enzyme (Homo sapiens, UniProt P12821)
Test: ACE inhibition activity measurement (IC50)
Format: biochemical
Details: FIG. 6; for ACE inhibition: isolated peptides
Method: The inventors of the present invention measured the ACE inhibition activities based on the process concentration with respect to the second hydrolysate containing a lower molecular weight among the gelatin extracts of the skins of a skate ray obtained from the above embodiments so as to develop a new hypertension therapy medicine which could be quickly absorbed by a human body and has a good effect, and the measurements were conducted in the method of measuring IC50 concentration which could inhibit 50% of the angiotensin converting enzyme in accordance with the angiotensin converting enzyme inhibition measurement method.
The inventors of the present invention isolated two active peptides by way of FPLC (Fast Protein Liquid Chromatography) with respect to the second hydrolysate so as to isolate the functional peptides having an antihypertensive activity contained in the second hydrolysate of the gelatin extract obtained from the skins of a skate ray. As a result of the analysis on the base sequence of the peptide, it was confirmed that the peptide had the following base sequence. In addition, the ACE inhibition (IC50) was checked in the earlier explained method so as to check the antihypertensive activity with respect to the peptides.

Chain of angiotensin converting enzyme (P12821 30-1306, species assumed): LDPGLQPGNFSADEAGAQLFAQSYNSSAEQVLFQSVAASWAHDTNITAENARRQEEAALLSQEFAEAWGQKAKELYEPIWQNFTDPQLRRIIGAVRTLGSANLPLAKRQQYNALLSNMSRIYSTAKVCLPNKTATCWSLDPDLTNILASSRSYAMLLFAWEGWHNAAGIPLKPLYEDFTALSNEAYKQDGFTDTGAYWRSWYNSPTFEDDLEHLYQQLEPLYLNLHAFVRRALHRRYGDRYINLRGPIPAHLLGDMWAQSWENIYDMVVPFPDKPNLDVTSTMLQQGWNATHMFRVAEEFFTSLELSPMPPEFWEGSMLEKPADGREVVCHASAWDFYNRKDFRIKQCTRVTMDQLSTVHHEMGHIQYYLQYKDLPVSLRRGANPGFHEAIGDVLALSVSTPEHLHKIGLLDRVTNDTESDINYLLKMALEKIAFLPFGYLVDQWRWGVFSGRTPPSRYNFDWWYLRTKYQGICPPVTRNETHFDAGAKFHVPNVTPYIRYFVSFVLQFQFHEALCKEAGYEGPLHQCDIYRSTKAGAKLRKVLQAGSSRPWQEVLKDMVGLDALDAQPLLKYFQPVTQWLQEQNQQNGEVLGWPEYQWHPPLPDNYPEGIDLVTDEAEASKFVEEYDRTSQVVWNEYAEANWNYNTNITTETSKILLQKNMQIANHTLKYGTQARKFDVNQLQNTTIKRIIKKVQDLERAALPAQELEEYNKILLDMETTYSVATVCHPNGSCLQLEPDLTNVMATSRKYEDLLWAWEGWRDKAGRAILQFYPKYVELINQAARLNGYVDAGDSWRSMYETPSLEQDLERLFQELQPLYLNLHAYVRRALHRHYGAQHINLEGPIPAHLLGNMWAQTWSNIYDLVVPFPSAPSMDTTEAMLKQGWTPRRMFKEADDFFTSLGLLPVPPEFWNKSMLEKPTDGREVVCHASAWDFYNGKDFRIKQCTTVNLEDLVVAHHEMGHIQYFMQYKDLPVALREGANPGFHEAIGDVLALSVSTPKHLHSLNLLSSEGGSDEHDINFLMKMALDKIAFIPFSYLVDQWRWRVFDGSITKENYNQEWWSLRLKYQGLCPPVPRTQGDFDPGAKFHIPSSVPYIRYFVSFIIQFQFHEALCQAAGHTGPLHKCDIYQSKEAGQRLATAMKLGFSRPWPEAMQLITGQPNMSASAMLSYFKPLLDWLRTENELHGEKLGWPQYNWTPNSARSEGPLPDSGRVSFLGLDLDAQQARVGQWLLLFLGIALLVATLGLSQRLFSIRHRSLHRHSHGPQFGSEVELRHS

ACE inhibition | Substance | antihypertensive activity (ACE inhibition) compared with the other peptide
have the ACE inhibition | MVGSAPGVL [SPI, peptide (829 Da) isolated by FPLC from the second hydrolysate] | higher antihypertensive activity as compared to the SP2
have the ACE inhibition | LGPLGHQ [SP2, peptide (720 Da) isolated by FPLC from the second hydrolysate] | 
